T1: His10-Sly1p (NH2-terminally His10-tagged full-length Sly1p) (S. cerevisiae, UniProt P22213 1-666)
T1 sequence: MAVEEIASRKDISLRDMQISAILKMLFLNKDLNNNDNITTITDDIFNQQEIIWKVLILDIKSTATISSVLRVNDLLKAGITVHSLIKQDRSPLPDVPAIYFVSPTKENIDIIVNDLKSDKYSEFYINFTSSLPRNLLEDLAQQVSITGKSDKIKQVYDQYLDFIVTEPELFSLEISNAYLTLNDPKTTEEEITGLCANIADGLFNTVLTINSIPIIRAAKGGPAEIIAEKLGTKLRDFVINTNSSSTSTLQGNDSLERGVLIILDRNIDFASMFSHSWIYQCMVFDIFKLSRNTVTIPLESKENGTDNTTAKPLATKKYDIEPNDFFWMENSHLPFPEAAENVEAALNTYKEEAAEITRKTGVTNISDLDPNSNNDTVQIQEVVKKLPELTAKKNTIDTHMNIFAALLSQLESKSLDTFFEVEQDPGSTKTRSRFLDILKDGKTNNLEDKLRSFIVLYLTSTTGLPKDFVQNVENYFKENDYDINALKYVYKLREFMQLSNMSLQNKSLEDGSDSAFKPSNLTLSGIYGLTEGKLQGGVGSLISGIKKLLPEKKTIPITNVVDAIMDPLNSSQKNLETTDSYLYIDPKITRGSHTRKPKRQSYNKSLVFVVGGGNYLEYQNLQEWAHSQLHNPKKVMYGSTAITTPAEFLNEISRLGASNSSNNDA

T2: GST–Ykt6p (amino acids 1–195) (S. cerevisiae, UniProt P36015 1-195)
T2 sequence: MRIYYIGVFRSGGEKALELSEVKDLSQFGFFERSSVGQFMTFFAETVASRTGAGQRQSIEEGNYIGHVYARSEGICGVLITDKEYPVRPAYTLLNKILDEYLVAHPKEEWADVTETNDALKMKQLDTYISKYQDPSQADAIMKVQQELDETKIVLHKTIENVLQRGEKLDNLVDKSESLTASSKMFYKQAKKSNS

T3: heterodimeric GST–Sed5p–His10-Sly1p complex bound to beads (S. cerevisiae, UniProt Q01590;P22213)
T3 sequence 1: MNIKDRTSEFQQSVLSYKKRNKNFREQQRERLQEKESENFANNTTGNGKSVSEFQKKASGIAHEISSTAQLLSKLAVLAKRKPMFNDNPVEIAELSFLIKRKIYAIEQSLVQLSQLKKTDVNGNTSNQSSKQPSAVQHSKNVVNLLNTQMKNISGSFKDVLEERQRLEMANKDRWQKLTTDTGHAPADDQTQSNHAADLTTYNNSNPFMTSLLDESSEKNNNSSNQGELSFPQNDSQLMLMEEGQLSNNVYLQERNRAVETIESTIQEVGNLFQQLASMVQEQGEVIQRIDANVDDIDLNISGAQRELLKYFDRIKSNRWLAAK
T3 sequence 2: T1 sequence

B1: GST–Sed5p (entire cytosolic region) (domain or fragment)
chain: T3 sequence 1
B2: His6-Sec22p (amino acids 1–188) (domain or fragment)
chain: MIKSTLIYREDGLPLCTSVDNENDPSLFEQKQKVKIVVSRLTPQSATEATLESGSFEIHYLKKSMVYYFVICESGYPRNLAFSYLNDIAQEFEHSFANEYPKPTVRPYQFVNFDNFLQMTKKSYSDKKVQDNLDQLNQELVGVKQIMSKNIEDLLYRGDSLDKMSDMSSSLKETSKRYRKSAQKINFD

Legend:
Assay in all cases: pull-down
[1] = biological target: T1, His10-Sly1p (NH2-terminally …)
[2] = biological target: T2, GST–Ykt6p (amino acids 1–195)
[3] = biological target: T3, heterodimeric GST–Sed5p–His10-Sly1p …
[4] = biological target: B1

| Binder | binding result [1] | binding result [2] | stoichiometry N [3] [per Sed5p] | stoichiometry N [4] [per Sed5p] |
| --- | --- | --- | --- | --- |
| B1 | binds |  |  |  |
| B2 |  | binds | 1.4 | 1.3 |

From article PMC2173853 (The Journal of Cell Biology, 2002)
